Laboratory results reported in PMC11417369, “DNA sequence and chromatin differentiate sequence-specific transcription factor binding in the human malaria parasite Plasmodium falciparum”.

T1: SIP2 D1 (Plasmodium falciparum, UniProt C6KSN9 177-235)
T1 sequence: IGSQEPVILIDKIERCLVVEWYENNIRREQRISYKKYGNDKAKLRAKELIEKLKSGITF

T2: HDP1 homeodomain-like (Plasmodium falciparum, UniProt Q8IKH4 2990-3078)
T2 sequence: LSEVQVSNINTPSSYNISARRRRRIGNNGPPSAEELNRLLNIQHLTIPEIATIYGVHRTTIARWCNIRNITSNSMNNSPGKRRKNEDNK


How the values were obtained:
SIP2 D1 = molecular target: T1, SIP2 D1; assay: gcPBM; about 25 ug protein; PBS, 1% milk, 0.2 mg/ml BSA, salmon testes DNA, 0.03% Triton X-100; details: tags: N-terminal GST (pGEX-4T-1), kept; label: surface-attached array probe
HDP1 homeodomain-like = molecular target: T2, HDP1 homeodomain-like; assay: as above; details: tags: N-terminal GST (pGEX-4T-1), kept; chain copies: 2; label: surface-attached array probe

Binder	binding signal (SIP2 D1)	binding signal (HDP1 homeodomain-like)
GTGCAC_negctrl_site735 (dsDNA) DNA 1: AAAATTAATTATTACAAAAATGAAAAGACATATTTT DNA 2: AAAATATGTCTTTTCATTTTTGTAATAATTAATTTT	6.68 ln median PBM intensity, better of two orientations	5.96 ln median PBM intensity, better of two orientations
GTGCAC_negctrl_site61 (dsDNA) DNA 1: TGTTTTTTGTTCTTTACAAAAAAAAAAAAAAAAAAA DNA 2: TTTTTTTTTTTTTTTTTTTGTAAAGAACAAAAAACA	6.89 ln median PBM intensity, better of two orientations	6.15 ln median PBM intensity, better of two orientations
GTGCAC_negctrl_site520 (dsDNA) DNA 1: AAAAAAAAATAAATAAATATATATAATATTTATGTT DNA 2: AACATAAATATTATATATATTTATTTATTTTTTTTT	6.84 ln median PBM intensity, better of two orientations	6.16 ln median PBM intensity, better of two orientations
GTGCAC_negctrl_site724 (dsDNA) DNA 1: TCCTCAAAAAAATAAAATAATTTATACTTTTTTAAA DNA 2: TTTAAAAAAGTATAAATTATTTTATTTTTTTGAGGA	6.79 ln median PBM intensity, better of two orientations	6.01 ln median PBM intensity, better of two orientations
GTGCAC_negctrl_site167 (dsDNA) DNA 1: TTGTATTTACACGATCAACCAAATGGTATATAAATA DNA 2: TATTTATATACCATTTGGTTGATCGTGTAAATACAA	6.87 ln median PBM intensity, better of two orientations	6.23 ln median PBM intensity, better of two orientations
GTGCAC_negctrl_site204 (dsDNA) DNA 1: TAATATGTTTATGGTAACATACAAAAATGTATATAT DNA 2: ATATATACATTTTTGTATGTTACCATAAACATATTA	6.79 ln median PBM intensity, better of two orientations	6.05 ln median PBM intensity, better of two orientations
GTGCAC_negctrl_site104 (dsDNA) DNA 1: TTTTTTTTTTCTTTTTTTTATTATATTAACGGAATT DNA 2: AATTCCGTTAATATAATAAAAAAAAGAAAAAAAAAA	6.89 ln median PBM intensity, better of two orientations	6.2 ln median PBM intensity, better of two orientations
GTGCAC_negctrl_site266 (dsDNA) DNA 1: AATCAATATAAATAAAATTTTTAATTTTAACCCTAA DNA 2: TTAGGGTTAAAATTAAAAATTTTATTTATATTGATT	6.64 ln median PBM intensity, better of two orientations	6.24 ln median PBM intensity, better of two orientations
GTGCAC_negctrl_site493 (dsDNA) DNA 1: TTCTCAAATATAATAAAATTATAAAGTGACCTAACT DNA 2: AGTTAGGTCACTTTATAATTTTATTATATTTGAGAA	6.88 ln median PBM intensity, better of two orientations	6.1 ln median PBM intensity, better of two orientations
GTGCAC_negctrl_site132 (dsDNA) DNA 1: AAAGTAACACACTAATATTTTAACAAATAATATATA DNA 2: TATATATTATTTGTTAAAATATTAGTGTGTTACTTT	6.76 ln median PBM intensity, better of two orientations	6.15 ln median PBM intensity, better of two orientations
GTGCAC_negctrl_site308 (dsDNA) DNA 1: TAATAATAGTACTGACATCAAAATCTTATTAAAAAT DNA 2: ATTTTTAATAAGATTTTGATGTCAGTACTATTATTA	6.81 ln median PBM intensity, better of two orientations	5.97 ln median PBM intensity, better of two orientations
GTGCAC_negctrl_site163 (dsDNA) DNA 1: ATTTTTTTATAAAATTTTTATATATTATATAAATAT DNA 2: ATATTTATATAATATATAAAAATTTTATAAAAAAAT	6.9 ln median PBM intensity, better of two orientations	6.2 ln median PBM intensity, better of two orientations
GTGCAC_negctrl_site521 (dsDNA) DNA 1: AGTGGAATGTATGATTTTCATTCCTTAAAATTTTAA DNA 2: TTAAAATTTTAAGGAATGAAAATCATACATTCCACT	6.55 ln median PBM intensity, better of two orientations	5.94 ln median PBM intensity, better of two orientations
GTGCAC_negctrl_site259 (dsDNA) DNA 1: TATTTACAACAAATTTAATTATTTTTAACTTATAAA DNA 2: TTTATAAGTTAAAAATAATTAAATTTGTTGTAAATA	6.7 ln median PBM intensity, better of two orientations	6.18 ln median PBM intensity, better of two orientations
GTGCAC_negctrl_site402 (dsDNA) DNA 1: AAAAAAAAAATACAACAAAGTTAAATAAATAAATAA DNA 2: TTATTTATTTATTTAACTTTGTTGTATTTTTTTTTT	6.65 ln median PBM intensity, better of two orientations	6.34 ln median PBM intensity, better of two orientations
GTGCAC_negctrl_site533 (dsDNA) DNA 1: AAATTAATAAATATTTTTATAAATTATAATATTAAT DNA 2: ATTAATATTATAATTTATAAAAATATTTATTAATTT	6.52 ln median PBM intensity, better of two orientations	5.92 ln median PBM intensity, better of two orientations
GTGCAC_negctrl_site610 (dsDNA) DNA 1: AATATATGGTTTCATGATATAAAATTCAATTTAATG DNA 2: CATTAAATTGAATTTTATATCATGAAACCATATATT	6.78 ln median PBM intensity, better of two orientations	6.09 ln median PBM intensity, better of two orientations

Binder	binding signal (SIP2 D1)	binding signal (HDP1 homeodomain-like)
GTGCAC_negctrl_site310 (dsDNA) DNA 1: TTACTAAAAATTATTAATAAATAATAATTATAAATT DNA 2: AATTTATAATTATTATTTATTAATAATTTTTAGTAA	6.58 ln median PBM intensity, better of two orientations	5.75 ln median PBM intensity, better of two orientations
GTGCAC_negctrl_site82 (dsDNA) DNA 1: CTGATATATTATTTATCTGAATATATTAATATGTAT DNA 2: ATACATATTAATATATTCAGATAAATAATATATCAG	6.78 ln median PBM intensity, better of two orientations	6.08 ln median PBM intensity, better of two orientations
GTGCAC_negctrl_site199 (dsDNA) DNA 1: AAAATTATATTTTATAGAAATTTAAATAAATATATA DNA 2: TATATATTTATTTAAATTTCTATAAAATATAATTTT	6.79 ln median PBM intensity, better of two orientations	6 ln median PBM intensity, better of two orientations
GTGCAC_negctrl_site376 (dsDNA) DNA 1: AACAGAATAATACTAAATGAACGATTTCTCTTTATG DNA 2: CATAAAGAGAAATCGTTCATTTAGTATTATTCTGTT	6.78 ln median PBM intensity, better of two orientations	5.96 ln median PBM intensity, better of two orientations
GTGCAC_negctrl_site428 (dsDNA) DNA 1: AATATATGTATATATTTTTTTTTTTCCCTTACAAAT DNA 2: ATTTGTAAGGGAAAAAAAAAAATATATACATATATT	6.66 ln median PBM intensity, better of two orientations	6.17 ln median PBM intensity, better of two orientations
GTGCAC_negctrl_site23 (dsDNA) DNA 1: TCCTATATATAAATATTAATATATATGTATTGGTAT DNA 2: ATACCAATACATATATATTAATATTTATATATAGGA	6.91 ln median PBM intensity, better of two orientations	6.35 ln median PBM intensity, better of two orientations
GTGCAC_negctrl_site348 (dsDNA) DNA 1: AAAATAAAAGAATAAAAATATGAAACTTTTTTAAAA DNA 2: TTTTAAAAAAGTTTCATATTTTTATTCTTTTATTTT	6.41 ln median PBM intensity, better of two orientations	5.89 ln median PBM intensity, better of two orientations
GTGCAC_negctrl_site440 (dsDNA) DNA 1: TTTTTTATTCCATAATATAATATGTTTTGAAATTTG DNA 2: CAAATTTCAAAACATATTATATTATGGAATAAAAAA	6.8 ln median PBM intensity, better of two orientations	6.16 ln median PBM intensity, better of two orientations
GTGCAC_negctrl_site503 (dsDNA) DNA 1: AAACAAAAGTAGAAGGTAGAGTATTTTATATTTAAA DNA 2: TTTAAATATAAAATACTCTACCTTCTACTTTTGTTT	6.67 ln median PBM intensity, better of two orientations	6.07 ln median PBM intensity, better of two orientations
GTGCAC_negctrl_site329 (dsDNA) DNA 1: TTTTTTTCTTTTTCAAAAAAAAAAAAAAAAAAAATA DNA 2: TATTTTTTTTTTTTTTTTTTTTGAAAAAGAAAAAAA	6.85 ln median PBM intensity, better of two orientations	5.41 ln median PBM intensity, better of two orientations
GTGCAC_negctrl_site636 (dsDNA) DNA 1: TTTTGTTGAAAAAAAAAAAAAAAATTAAATTAAATT DNA 2: AATTTAATTTAATTTTTTTTTTTTTTTTCAACAAAA	6.63 ln median PBM intensity, better of two orientations	5.87 ln median PBM intensity, better of two orientations
GTGCAC_negctrl_site522 (dsDNA) DNA 1: TTTTTTACGCATAACTTAATATGAGAATCCCTTTCT DNA 2: AGAAAGGGATTCTCATATTAAGTTATGCGTAAAAAA	6.89 ln median PBM intensity, better of two orientations	6.33 ln median PBM intensity, better of two orientations
GTGCAC_negctrl_site443 (dsDNA) DNA 1: ATATAATTTGTTATACTAACTTTTTAATTATTGATA DNA 2: TATCAATAATTAAAAAGTTAGTATAACAAATTATAT	6.82 ln median PBM intensity, better of two orientations	6.13 ln median PBM intensity, better of two orientations
GTGCAC_negctrl_site36 (dsDNA) DNA 1: TTATGTGATAAAAAAAAAATACAACAAAGTTAAATA DNA 2: TATTTAACTTTGTTGTATTTTTTTTTTATCACATAA	6.76 ln median PBM intensity, better of two orientations	6.32 ln median PBM intensity, better of two orientations
GTGCAC_negctrl_site626 (dsDNA) DNA 1: AAAATATAAATATATTTGAACATGGATCAAATGTAA DNA 2: TTACATTTGATCCATGTTCAAATATATTTATATTTT	6.71 ln median PBM intensity, better of two orientations	6.08 ln median PBM intensity, better of two orientations
GTGCAC_negctrl_site554 (dsDNA) DNA 1: AAAAAAAAAAAATATTGTAGAATATGATGACTTTGT DNA 2: ACAAAGTCATCATATTCTACAATATTTTTTTTTTTT	6.85 ln median PBM intensity, better of two orientations	6.29 ln median PBM intensity, better of two orientations
GTGCAC_negctrl_site350 (dsDNA) DNA 1: TTCACTTTTTTTTTTTTTTTTTTTTTTTTTTTTATT DNA 2: AATAAAAAAAAAAAAAAAAAAAAAAAAAAAAGTGAA	6.86 ln median PBM intensity, better of two orientations	6 ln median PBM intensity, better of two orientations
